Laboratory results taken from patent publication US20160355590A1.

Biological target: HLA-DR on Raji cells, the Lym-1 antigen (HLA-Dr10) (human)
Assay: cell-based or functional assay

Lym-1 CAR (on primary human T-cells) was tested, and the lysis of target Raji cells (LDH cytotoxicity assay) was 22%.
